The record followed here is patent US20170000857A1.

In the test the target is ALMS1 (Alstrom syndrome protein 1) (human) (UniProt Q8TCU4). Briefly: cell-based or functional assay.
Sequence of UniProt Q8TCU4 (Q8TCU4 other isoform, or with tags, fused parts or gaps limits assumed): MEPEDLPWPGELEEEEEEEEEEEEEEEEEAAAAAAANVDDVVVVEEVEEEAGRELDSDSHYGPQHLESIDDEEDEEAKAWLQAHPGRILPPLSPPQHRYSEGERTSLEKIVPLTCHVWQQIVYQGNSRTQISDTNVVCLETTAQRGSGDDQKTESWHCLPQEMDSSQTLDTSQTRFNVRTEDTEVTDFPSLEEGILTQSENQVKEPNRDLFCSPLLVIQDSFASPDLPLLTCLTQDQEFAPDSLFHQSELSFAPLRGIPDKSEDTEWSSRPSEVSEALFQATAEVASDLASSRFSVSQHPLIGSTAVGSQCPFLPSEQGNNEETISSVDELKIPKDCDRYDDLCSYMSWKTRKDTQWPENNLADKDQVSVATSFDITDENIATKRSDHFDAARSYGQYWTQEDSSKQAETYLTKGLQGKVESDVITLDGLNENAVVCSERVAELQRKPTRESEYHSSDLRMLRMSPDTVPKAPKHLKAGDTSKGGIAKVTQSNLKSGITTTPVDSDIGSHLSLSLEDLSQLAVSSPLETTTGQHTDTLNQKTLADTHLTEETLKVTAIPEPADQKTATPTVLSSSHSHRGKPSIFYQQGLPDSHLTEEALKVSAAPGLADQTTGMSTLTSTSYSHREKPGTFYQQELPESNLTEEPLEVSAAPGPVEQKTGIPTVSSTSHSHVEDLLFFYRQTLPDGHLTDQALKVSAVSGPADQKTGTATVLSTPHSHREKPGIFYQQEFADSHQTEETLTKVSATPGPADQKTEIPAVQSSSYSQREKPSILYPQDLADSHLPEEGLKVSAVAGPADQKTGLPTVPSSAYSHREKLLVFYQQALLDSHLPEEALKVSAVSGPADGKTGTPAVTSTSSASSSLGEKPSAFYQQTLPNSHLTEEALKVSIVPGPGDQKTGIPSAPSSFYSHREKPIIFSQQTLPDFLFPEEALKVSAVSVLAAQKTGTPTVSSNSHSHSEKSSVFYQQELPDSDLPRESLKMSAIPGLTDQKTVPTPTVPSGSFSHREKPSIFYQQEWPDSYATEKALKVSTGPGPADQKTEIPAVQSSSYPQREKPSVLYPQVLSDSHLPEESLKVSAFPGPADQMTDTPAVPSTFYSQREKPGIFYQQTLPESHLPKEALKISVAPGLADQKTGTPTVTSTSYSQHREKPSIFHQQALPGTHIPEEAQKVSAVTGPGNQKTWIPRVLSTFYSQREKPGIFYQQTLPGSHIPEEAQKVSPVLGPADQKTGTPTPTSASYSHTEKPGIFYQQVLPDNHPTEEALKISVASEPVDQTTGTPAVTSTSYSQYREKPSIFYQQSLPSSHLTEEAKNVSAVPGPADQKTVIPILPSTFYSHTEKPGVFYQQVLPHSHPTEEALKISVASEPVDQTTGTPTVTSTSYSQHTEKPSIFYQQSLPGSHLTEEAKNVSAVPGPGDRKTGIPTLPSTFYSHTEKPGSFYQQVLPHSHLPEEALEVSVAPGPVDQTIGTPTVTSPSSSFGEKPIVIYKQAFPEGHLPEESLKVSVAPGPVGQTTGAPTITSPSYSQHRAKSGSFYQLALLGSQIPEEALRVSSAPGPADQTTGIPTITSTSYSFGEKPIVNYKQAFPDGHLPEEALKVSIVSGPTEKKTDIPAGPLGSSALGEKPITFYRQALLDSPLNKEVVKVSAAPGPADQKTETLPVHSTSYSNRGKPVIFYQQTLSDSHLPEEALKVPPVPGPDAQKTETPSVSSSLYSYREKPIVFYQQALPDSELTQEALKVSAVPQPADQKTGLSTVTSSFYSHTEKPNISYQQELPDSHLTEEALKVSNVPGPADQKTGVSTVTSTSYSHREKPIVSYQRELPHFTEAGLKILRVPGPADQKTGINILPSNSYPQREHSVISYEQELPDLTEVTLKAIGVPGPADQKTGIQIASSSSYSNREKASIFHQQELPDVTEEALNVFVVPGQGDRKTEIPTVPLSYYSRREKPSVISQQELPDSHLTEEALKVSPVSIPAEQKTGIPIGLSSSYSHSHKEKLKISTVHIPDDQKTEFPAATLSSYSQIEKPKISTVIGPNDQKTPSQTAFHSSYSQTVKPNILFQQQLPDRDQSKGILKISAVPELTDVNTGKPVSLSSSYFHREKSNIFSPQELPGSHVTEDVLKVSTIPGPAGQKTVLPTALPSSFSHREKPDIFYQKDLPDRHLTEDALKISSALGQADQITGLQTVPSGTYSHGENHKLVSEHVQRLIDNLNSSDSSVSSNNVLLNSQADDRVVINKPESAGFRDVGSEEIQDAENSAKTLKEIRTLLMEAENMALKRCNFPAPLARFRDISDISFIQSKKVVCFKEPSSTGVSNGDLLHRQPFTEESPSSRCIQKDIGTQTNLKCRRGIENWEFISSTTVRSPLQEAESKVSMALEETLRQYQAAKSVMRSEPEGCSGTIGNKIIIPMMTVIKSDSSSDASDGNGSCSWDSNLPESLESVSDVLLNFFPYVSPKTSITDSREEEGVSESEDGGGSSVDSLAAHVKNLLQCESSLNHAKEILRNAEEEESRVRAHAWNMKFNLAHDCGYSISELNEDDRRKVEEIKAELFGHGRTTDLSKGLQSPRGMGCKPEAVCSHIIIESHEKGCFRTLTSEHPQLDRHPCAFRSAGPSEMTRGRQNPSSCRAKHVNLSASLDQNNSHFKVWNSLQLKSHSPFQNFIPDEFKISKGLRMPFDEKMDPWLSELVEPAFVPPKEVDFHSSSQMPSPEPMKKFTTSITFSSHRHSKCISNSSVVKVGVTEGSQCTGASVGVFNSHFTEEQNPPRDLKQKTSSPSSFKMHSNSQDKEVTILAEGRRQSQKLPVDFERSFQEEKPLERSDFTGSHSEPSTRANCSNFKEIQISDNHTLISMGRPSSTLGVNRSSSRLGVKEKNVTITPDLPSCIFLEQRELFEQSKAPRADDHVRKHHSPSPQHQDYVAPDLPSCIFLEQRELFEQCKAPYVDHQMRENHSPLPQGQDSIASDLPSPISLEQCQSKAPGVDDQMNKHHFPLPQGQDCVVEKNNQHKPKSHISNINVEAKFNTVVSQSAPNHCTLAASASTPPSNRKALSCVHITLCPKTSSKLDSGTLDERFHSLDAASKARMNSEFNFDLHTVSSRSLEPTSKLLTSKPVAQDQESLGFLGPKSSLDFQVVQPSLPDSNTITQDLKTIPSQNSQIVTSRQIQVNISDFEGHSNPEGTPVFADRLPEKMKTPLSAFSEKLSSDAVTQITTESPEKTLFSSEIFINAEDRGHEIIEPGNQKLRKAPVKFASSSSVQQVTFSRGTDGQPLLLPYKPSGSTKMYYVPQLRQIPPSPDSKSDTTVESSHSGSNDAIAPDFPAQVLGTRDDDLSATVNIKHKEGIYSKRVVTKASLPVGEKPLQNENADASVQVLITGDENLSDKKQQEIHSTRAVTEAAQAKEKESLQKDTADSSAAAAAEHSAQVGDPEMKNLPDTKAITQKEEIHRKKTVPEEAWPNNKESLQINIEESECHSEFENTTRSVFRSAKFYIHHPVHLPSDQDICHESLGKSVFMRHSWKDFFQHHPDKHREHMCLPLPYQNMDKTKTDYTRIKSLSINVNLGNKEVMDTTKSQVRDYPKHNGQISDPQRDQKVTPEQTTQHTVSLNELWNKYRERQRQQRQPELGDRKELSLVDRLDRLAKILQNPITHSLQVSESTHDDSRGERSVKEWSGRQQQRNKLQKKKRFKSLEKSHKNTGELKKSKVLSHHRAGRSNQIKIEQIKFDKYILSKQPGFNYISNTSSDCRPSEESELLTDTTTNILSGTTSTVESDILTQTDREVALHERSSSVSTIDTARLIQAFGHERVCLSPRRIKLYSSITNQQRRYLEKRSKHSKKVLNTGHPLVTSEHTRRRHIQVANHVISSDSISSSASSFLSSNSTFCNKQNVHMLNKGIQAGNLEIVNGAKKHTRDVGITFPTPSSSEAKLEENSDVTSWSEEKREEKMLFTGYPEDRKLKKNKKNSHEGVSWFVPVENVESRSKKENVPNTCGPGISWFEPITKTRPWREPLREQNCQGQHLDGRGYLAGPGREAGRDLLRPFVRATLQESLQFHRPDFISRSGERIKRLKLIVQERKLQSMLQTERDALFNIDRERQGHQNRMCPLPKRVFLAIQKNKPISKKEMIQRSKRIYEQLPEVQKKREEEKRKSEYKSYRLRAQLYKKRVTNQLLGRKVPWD

“min-αPKC-FLAG (ALMS1-interacting domain of human PKCα with N-terminal FLAG tag) (from UniProt P05696 336-672)” displayed a 2-NBDG absorption in mature adipocytes in absence of INS (times (vs control)) of 3.5.
